According to PMC8847413:

Assays:
[1] = molecular target: prefusion-stabilized S protein (S trimer) of SARS-CoV-2 G614 variant (SARS-CoV-2) (UniProt P0DTC2); test: BLI
[2] = molecular target: prefusion-stabilized trimeric S protein (S ectodomain) of SARS-CoV-2 Delta (B.1.617.2) variant (SARS-CoV-2) (UniProt P0DTC2); test: BLI

human ACE2 peptidase domain (PD), sequence (Q9BYF1 17-615): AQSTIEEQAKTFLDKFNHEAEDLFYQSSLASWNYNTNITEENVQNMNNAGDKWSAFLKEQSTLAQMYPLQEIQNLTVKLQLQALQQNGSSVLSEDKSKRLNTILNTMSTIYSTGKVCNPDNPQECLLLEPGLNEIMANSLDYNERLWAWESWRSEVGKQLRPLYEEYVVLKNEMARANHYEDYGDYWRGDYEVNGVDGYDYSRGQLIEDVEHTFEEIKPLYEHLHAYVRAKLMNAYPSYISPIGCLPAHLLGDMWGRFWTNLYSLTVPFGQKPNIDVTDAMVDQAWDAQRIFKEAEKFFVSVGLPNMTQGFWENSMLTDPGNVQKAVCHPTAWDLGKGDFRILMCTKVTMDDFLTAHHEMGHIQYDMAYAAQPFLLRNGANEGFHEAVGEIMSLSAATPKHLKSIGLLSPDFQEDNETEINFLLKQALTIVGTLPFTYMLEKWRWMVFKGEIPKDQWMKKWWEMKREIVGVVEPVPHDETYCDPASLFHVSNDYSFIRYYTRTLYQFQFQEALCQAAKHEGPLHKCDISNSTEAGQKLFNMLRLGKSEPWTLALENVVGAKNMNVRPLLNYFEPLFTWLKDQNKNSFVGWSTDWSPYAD

What does the source list for “human ACE2 peptidase domain (PD) (from UniProt Q9BYF1) (domain or fragment)”?
Kd [1]: 0.087 µM; Kd [2]: 0.041 µM
